Data taken from PMC3069017 (Molecular Biology of the Cell, 2011).

Molecular target: T1, GST-IFT54 (mouse, UniProt Q149C2 1-625)
T1 sequence (looked up): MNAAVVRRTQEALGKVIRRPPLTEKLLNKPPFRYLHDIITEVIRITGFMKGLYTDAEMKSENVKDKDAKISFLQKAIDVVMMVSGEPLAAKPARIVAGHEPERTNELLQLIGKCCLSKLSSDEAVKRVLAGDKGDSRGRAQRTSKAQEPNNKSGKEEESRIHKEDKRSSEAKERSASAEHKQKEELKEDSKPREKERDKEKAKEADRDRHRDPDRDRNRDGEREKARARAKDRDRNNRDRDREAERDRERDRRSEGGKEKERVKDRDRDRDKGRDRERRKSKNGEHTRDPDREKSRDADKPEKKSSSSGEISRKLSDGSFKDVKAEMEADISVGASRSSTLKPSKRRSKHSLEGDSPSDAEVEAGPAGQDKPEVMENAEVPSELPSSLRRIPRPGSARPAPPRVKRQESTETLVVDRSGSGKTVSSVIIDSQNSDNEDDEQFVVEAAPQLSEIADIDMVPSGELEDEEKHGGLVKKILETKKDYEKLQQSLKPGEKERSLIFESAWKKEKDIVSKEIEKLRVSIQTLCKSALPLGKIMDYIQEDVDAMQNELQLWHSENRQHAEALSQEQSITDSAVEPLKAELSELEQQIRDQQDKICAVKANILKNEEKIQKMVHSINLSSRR
Test: pull-down

B1: purified, untagged IFT20 (natural protein, mouse, UniProt Q61025-1 1-132, looked up)
chain: MAKDILGEAGLHFDELNKLRVLDPEVTQQTVELKEECKDFVDKIGQFQKIVGGLIELVDQLAKEAENEKMKAIGARNLLKSIAKQREAQQQQLQALIAEKKTQLERYRVEYEALCKVEAEQNEFIDQFIFQK
- binding result: binds
